Source: publication PMC9791688, “Bioluminescence Goes Dark: Boosting the Performance of Bioluminescent Sensor Proteins Using Complementation Inhibitors” (ACS Sensors, 2022)

Molecular target: T1, LgBiT (C-terminal GTTSA linker and Strep-tag (WSHPQFEK) omitted)
T1 chain: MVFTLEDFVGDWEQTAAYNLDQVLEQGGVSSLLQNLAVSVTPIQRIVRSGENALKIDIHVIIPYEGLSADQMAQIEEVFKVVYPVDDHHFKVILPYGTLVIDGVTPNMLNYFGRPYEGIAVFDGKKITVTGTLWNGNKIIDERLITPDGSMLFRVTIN
Experiment: split reporter (BiFC, NanoBiT); competition: DarkBiT101 titrated to 75 pM SmBiT86 and 0.75 nM LgBiT, loss of luminescence; 1x PBS, 0.02% Tween20, 4 °C for 16 h before addition of 1:1000 NanoGlo
Conditions: both partners purified

Ki: 2600 ± 400 nM
Binder: VTGYALFEKES [DarkBiT101 peptide]
